Substrate: OC[C@H]1O[C@@H](n2cnc3c(O)ncnc32)[C@H](O)[C@@H]1O
Test: purified protein
Details: […] hPNP

B1: human purine nucleoside phosphorylase (hPNP) (Homo sapiens) (protein)
chain: MENGYTYEDYKNTAEWLLSHTKHRPQVAIICGSGLGGLTDKLTQAQIFDYGEIPNFPRSTVPGHAGRLVFGFLNGRACVMMQGRFHMYEGYPLWKVTFPVRVFHLLGVDTLVVTNAAGGLNPKFEVGDIMLIRDHINLPGFSGQNPLRGPNDERFGDRFPAMSDAYDRTMRQRALSTWKQMGEQRELQEGTYVMVAGPSFETVAECRVLQKLGADAVGMSTVPEVIVARHCGLRVFGFSLITNKVIMDYESLEKANHEEVLAAGKQAAQKLEQFVSILMASIPLPDKAS
Protein B1 has a Km of 68.92 ± 4.08 µM.

From publication doi:10.1101/2024.05.16.594462v2
